Test results taken from publication doi:10.1101/286310, “Dynamics of human protein kinases linked to drug selectivity” (bioRxiv, 2018).

Target: the molecule itself
Experiment: crystal structure; co-crystallised: 240 uM deP Aurora A 122-403 + 1.0 mM AT9283 + 250 uM Mb; sitting drop, 18 °C; 0.1 M Bis-Tris pH 5.5, 0.2 M magnesium chloride, 19% (w/v) PEG-3350

B1: dephosphorylated Aurora A (122-403) (domain or fragment, human, UniProt O14965 122-403, looked up)
chain: ESKKRQWALEDFEIGRPLGKGKFGNVYLAREKQSKFILALKVLFKAQLEKAGVEHQLRREVEIQSHLRHPNILRLYGYFHDATRVYLILEYAPLGTVYRELQKLSKFDEQRTATYITELANALSYCHSKRVIHRDIKPENLLLGSAGELKIADFGWSVHAPSSRRTTLCGTLDYLPPEMIEGRMHDEKVDLWSLGVLCYEFLVGKPPFEANTYQETYKRISRVEFTFPDFVTEGARDLISRLLKHNPSQRPMLREVLEHPWITANSSKPSNCQNKESASKQS
notes: Aurora A kinase (Ser/Thr kinase), residues 122-403, dephosphorylated; also called AurA; deP Aurora A^122-403; source: expressed and purified as described before (Zorba et al., 2014); dephosphorylated state confirmed by mass spectrometry
binding result: binds
